Molecular target: Her (trivalent GalNAc glycan-conjugated)
Assay: SPR

koff: 1.83e-08 s⁻¹
B1: ASGPR subunit H1 (receptor)
chain: QNSQLQEELRGLRETFSNFTASTEAQVKGLSTQGGNVGRKMKSLESQLEKQQKDLSEDHSSLLLHVKQFVSDLRSLSCQMAALQGNGSERTCCPVNWVEHERSCYWFSRSGKAWADADNYCRLEDAHLVVVTSWEEQKFVQHHIGPVNTWMGLHDQNGPWKWVDGTDYETGFKNWRPEQPDDWYGHGLGGGEDCAHFTDDGRWNDDVCQRPYRWVCETELDKASQEPPLL
